Results on two proteins are retold here after patent US20040052799A1, “Nucleic acid and amino acid sequences relating to Helicobacter pylori for diagnostics and therapeutics” (Astra Aktiebolag, priority 1996, published 2004).

Substrate in data set [1]: N[C@H](CCC(=O)O)C(=O)O
In words: Glutamate racemase activity, conversion of D-glutamate to L-glutamate (two enzyme and single enzyme coupled assays). It counts as biochemical, H. pylori. Conditions: other: purified recombinant enzyme; 37.0 °C. As to the method:
The activity of glutamate racemase, interconversion of the enantiomers of glutamic acid, was measured using D-glutamic acid as substrate. The method of Gallo and Knowles (Gallo, K. A. and Knowles, J. R., 1993, Biochmistry 32, 3981-3990) that was used to measure the glutamate racemase activity of Lactobacillus fermenti was adapted for the measurement of glutamate racemase activity of the H. pylori murI gene product isolated as a recombinant protein from E. coli. […] Initial rates were determined by following the increase in absorbance at 500 nm in a reaction volume of 200 μl containing 50 mM Tris-HCl, pH 7.8, 4% v/v glycerol, 10 mM NAD, 2 mM INT, 60 Units/ml L-glutamate dehydrogenase, 5 Units/ml diaphorase, and varying concentrations of either substrate (from 0.063 mM to 250 mM D-glutamic acid) or purified enzyme (from 1 μg to 50 μg). After a preincubation of all reagents except either the substrate (D-glutamic acid) or the enzyme (murI gene product) for a period of 5 minutes, reactions were initiated by adding the missing ingredient (i.e., the enzyme or the subtrate, as required), and the increase in optical density at 500 nm was measured in a Microplate Spectophotometer System (Molecular Devices, Spectra MAX 250). Measurements were followed for 20 minutes, and initial velocities were derived by calculating the maximum slope for the absorbance increases. […]

Substrate in data set [2]: N[C@@H](CC=O)C(=O)O
Kind of data set: Asd assay, reverse reaction, NADPH formation. Format: biochemical, E. coli. Conditions: other: pH 7.5.

B1: H. pylori glutamate racemase (murI gene product) (Helicobacter pylori J99) (protein)
chain: MKIGVFDSGVGGFSVLKSLLKARLFDEIIYYGDSARVPYGTKDPTTIKQFGLEALDFFKPHEIELLIVACNTASALALEEMQKYSKIPIVGVIEPSILAIKRQVEDKNAPILVLGTKATIQSNAYDNALKQQGYLNISHLATSLFVPLIEESILEGELLETCMHYYFTPLEILPEVIILGCTHFPLIAQKIEGYFMGHFALPTPPLLIHSGDAIVEYLQQKYALKNNACTFPKVEFHASGDVIWLERQAKEWLKL
notes: made in house; host or cells: E. coli BL21(DE3) carrying pET-23-murI and pACYC-groE (GroES/GroEL co-expressed)
For the protein B1, in data set [1], the Km is 100 µM.

B2: E. coli Asd (Escherichia coli K-12) (protein)
chain: MKNVGFIGWRGMVGSVLMQRMVEERDFDAIRPVFFSTSQLGQAAPSFGGTTGTLQDAFDLEALKALDIIVTCQGGDYTNEIYPKLRESGWQGYWIDAASSLRMKDDAIIILDPVNQDVITDGLNNGIRTFVGGNCTVSLMLMSLGGLFANDLVDWVSVATYQAASGGGARHMRELLTQMGHLYGHVADELATPSSAILDIERKVTTLTRSGELPVDNFGVPLAGSLIPWIDKQLDNGQSREEWKGQAETNKILNTSSVIPVDGLCVRVGALRCHSQAFTIKLKKDVSIPTVEELLAAHNPWAKVVPNDREITMRELTPAAVTGTLTTPVGRLRKLNMGPEFLSAFTVGDQLLWGAAEPLRRMLRQLA
notes: made in house; host or cells: E. coli HMS174 pLysS, pET28b
On to B2, for which the Michaelis constant (Km) in data set [2] worked out at 104 µM.
